Results: the RNAGym collection of RNA variant scans (doi:10.7554/elife.80360)

B1: Hairpin Ribozyme (parent)
chain: GUCCUCUUUCACGUGCGCGUGAAAGAGAGAAGUGAACCAGAGAAACACACGUUGUGGUAUAUUACCUGGUA

Variants of: B1
Test: self-cleavage, relative activity (ratio to wild type); higher = more cleavage; co-transcriptional

Going from A23C C48U to A23C C48G, the self-cleavage falls from 0.202 to 0.0948.

Compared with A23C C48A, A22C A26C is higher in self-cleavage: 0.0725 for the first, 0.528 for the second.

Going from G21U A23U to G21U A23G, the self-cleavage rises from 0.754 to 0.772.

Going from G21U U55A to G21U U55C, the self-cleavage rises from 0.227 to 0.288.

Going from G21U G68U to G21U G68A, the self-cleavage falls from 0.32 to 0.237.

First: A22U C50G
Second: A22G G54U
The self-cleavage of the first is lower: 0.223 for the first, 0.423 for the second.

First: A22C A23G
Second: A22C A23C
The self-cleavage of the first is lower: 0.779 for the first, 0.947 for the second.

Compared with A22C A23U, A22U G56A is lower in self-cleavage: 0.932 for the first, 0.147 for the second.

Going from G21U C37A to A22G A47G, the self-cleavage falls from 0.267 to 0.135.

Going from A22U U52C to A22U U52G, the self-cleavage rises from 0.631 to 0.883.

Compared with G21C G42U, A22G U33G is lower in self-cleavage: 0.379 for the first, 0.111 for the second.

Compared with A22U U67G, A22C G40C is lower in self-cleavage: 0.295 for the first, 0.123 for the second.

Going from A22C A59C to A22C A59G, the self-cleavage rises from 0.0825 to 0.25.

Going from A22C A59U to A22G G42U, the self-cleavage rises from 0.104 to 0.288.

Compared with A22G G42C, A22U G54U is higher in self-cleavage: 0.365 for the first, 0.518 for the second.

First: A22U G54A
Second: A22U G54C
The self-cleavage of the first is higher: 0.335 for the first, 0.333 for the second.

First: G21A G68A
Second: A22G C38A
The self-cleavage of the first is higher: 0.151 for the first, 0.147 for the second.

First: G21U A71G
Second: A22G C46U
The self-cleavage of the first is higher: 0.805 for the first, 0.0765 for the second.

First: A22G C46G
Second: G21A U63A
The self-cleavage of the first is higher: 0.208 for the first, 0.14 for the second.

Compared with A22C G27A, A22G A41C is higher in self-cleavage: 0.272 for the first, 1.01 for the second.

First: A22G A41U
Second: G21C A36C
The self-cleavage of the first is higher: 0.921 for the first, 0.534 for the second.

First: G21C A36U
Second: G21C U62G
The self-cleavage of the first is higher: 0.566 for the first, 0.216 for the second.

Going from G21C G57A to A22U G32A, the self-cleavage falls from 0.16 to 0.122.

First: G21C A31G
Second: A22C U67C
The self-cleavage of the first is higher: 0.275 for the first, 0.196 for the second.

Compared with A22C U67A, G21A C38G is higher in self-cleavage: 0.195 for the first, 0.239 for the second.

Compared with G21A C38A, G21U A59U is lower in self-cleavage: 0.208 for the first, 0.147 for the second.

Compared with G21U A59G, G21U A59C is higher in self-cleavage: 0.0937 for the first, 0.148 for the second.

First: G21A U60C
Second: A22G A49U
The self-cleavage of the first is higher: 0.956 for the first, 0.126 for the second.

First: G21C A30G
Second: G21A A59C
The self-cleavage of the first is higher: 0.22 for the first, 0.13 for the second.

First: G21A A59U
Second: A22U C46U
The self-cleavage of the first is higher: 0.142 for the first, 0.117 for the second.

Compared with G21C U67G, G21C U67C is lower in self-cleavage: 0.246 for the first, 0.18 for the second.

First: G21C U67A
Second: A22U A31C
The self-cleavage of the first is higher: 0.212 for the first, 0.0317 for the second.

Compared with G21A G25U, G21C G56C is lower in self-cleavage: 0.426 for the first, 0.209 for the second.

First: G21C G56U
Second: G21A U53C
The self-cleavage of the first is lower: 0.268 for the first, 0.739 for the second.

Compared with G21A U53A, A22G A39G is lower in self-cleavage: 0.824 for the first, 0.298 for the second.

First: A23C G51A
Second: A22U C37G
The self-cleavage of the first is higher: 0.83 for the first, 0.339 for the second.

First: G21A U52G
Second: A22C A43C
The self-cleavage of the first is higher: 0.784 for the first, 0.061 for the second.

Going from G21U A43G to G21U A43U, the self-cleavage falls from 0.282 to 0.129.

First: G21C A45U
Second: G21C A45C
The self-cleavage of the first is lower: 0.154 for the first, 0.276 for the second.

Compared with G21C A45G, A22G A31C is lower in self-cleavage: 0.192 for the first, 0.159 for the second.

Going from A22G A31G to G21U U70C, the self-cleavage falls from 0.744 to 0.687.

Going from A22G A26C to G21U C38A, the self-cleavage falls from 0.649 to 0.184.

Compared with A22U A59C, A22G U63A is higher in self-cleavage: 0.17 for the first, 0.22 for the second.

First: A22G U63G
Second: G21A G54U
The self-cleavage of the first is lower: 0.171 for the first, 0.372 for the second.

Going from G21C A23C to A22U A64G, the self-cleavage rises from 0.422 to 0.474.

First: A22U A64U
Second: A23C A26C
The self-cleavage of the first is lower: 0.14 for the first, 0.507 for the second.

Going from A22C U62A to A22C U62G, the self-cleavage rises from 0.128 to 0.155.

First: A23C A43G
Second: A23C A43C
The self-cleavage of the first is lower: 0.0715 for the first, 0.146 for the second.

First: G21U G42A
Second: G21U G42U
The self-cleavage of the first is lower: 0.158 for the first, 0.285 for the second.

Compared with G21U A39C, G21U A39G is lower in self-cleavage: 0.448 for the first, 0.293 for the second.

First: G21U U62A
Second: G21A A39U
The self-cleavage of the first is lower: 0.151 for the first, 0.346 for the second.

Compared with G21A A39C, G21U A61C is lower in self-cleavage: 0.467 for the first, 0.237 for the second.

First: A23C A31G
Second: G21A C37G
The self-cleavage of the first is higher: 0.696 for the first, 0.344 for the second.

Going from G21A C37A to G21A C37U, the self-cleavage rises from 0.269 to 0.538.

Going from G21A A64G to G21A A64U, the self-cleavage falls from 0.418 to 0.178.

First: A22C U52C
Second: A22C U52G
The self-cleavage of the first is higher: 1.09 for the first, 0.726 for the second.

First: A23C G25C
Second: A23C G25U
The self-cleavage of the first is lower: 0.147 for the first, 0.172 for the second.

Going from G21C A41U to G21C A41C, the self-cleavage falls from 1.16 to 0.957.

Going from G21U G25A to A22C A44U, the self-cleavage falls from 0.252 to 0.221.

Compared with A22U U33C, A22C U55C is higher in self-cleavage: 0.235 for the first, 0.247 for the second.

Compared with A22C U55G, G21C C65A is higher in self-cleavage: 0.173 for the first, 0.777 for the second.

Compared with G21U G51C, A22U U63A is lower in self-cleavage: 0.859 for the first, 0.155 for the second.

Compared with A23C C46A, G21C C66U is higher in self-cleavage: 0.131 for the first, 0.576 for the second.

First: G21C C66A
Second: A22G A64G
The self-cleavage of the first is lower: 0.27 for the first, 0.565 for the second.

Going from A22G G57A to A22G G57U, the self-cleavage rises from 0.17 to 0.305.

First: G21U A22U
Second: G21C C37U
The self-cleavage of the first is higher: 0.809 for the first, 0.583 for the second.

First: G21C C37A
Second: A22C A64G
The self-cleavage of the first is lower: 0.192 for the first, 0.467 for the second.

Compared with G21A C46A, G21C C46A is lower in self-cleavage: 0.149 for the first, 0.0884 for the second.

Compared with G21C C46U, A22C U70C is higher in self-cleavage: 0.116 for the first, 0.892 for the second.

Going from A22C U70A to G21A A61U, the self-cleavage falls from 0.862 to 0.18.

Going from G21A A61G to A23C C37G, the self-cleavage rises from 0.116 to 0.159.

Going from G21U U67A to A23C A28U, the self-cleavage rises from 0.088 to 0.501.

First: A23C A39U
Second: G21A A43C
The self-cleavage of the first is higher: 0.269 for the first, 0.153 for the second.

Compared with G21A A43U, A22G C65G is higher in self-cleavage: 0.123 for the first, 0.249 for the second.

Compared with G21C U33A, A22C G51U is higher in self-cleavage: 0.133 for the first, 0.919 for the second.

Compared with G21C C48G, G21C C48U is lower in self-cleavage: 0.184 for the first, 0.098 for the second.

Compared with A22U G42C, A22C C50U is higher in self-cleavage: 0.325 for the first, 0.405 for the second.

Compared with G21C U58C, G21C U58A is lower in self-cleavage: 0.77 for the first, 0.577 for the second.

Going from G21C A59C to A22G U55C, the self-cleavage rises from 0.238 to 0.294.

Going from A22U C66U to A22G A35G, the self-cleavage rises from 0.482 to 0.905.

Compared with A22G A35U, A22U G69A is lower in self-cleavage: 0.715 for the first, 0.42 for the second.

First: G21U C50U
Second: G21U C50G
The self-cleavage of the first is higher: 0.376 for the first, 0.328 for the second.

Going from G21U A30G to G21U A30U, the self-cleavage falls from 0.149 to 0.142.

Work on A22G U52A yielded a self-cleavage of 0.853.
